Laboratory results taken from patent US20240239894A1 (AstraZeneca / MedImmune, published 2024).
Where a chain is given by its changes, count along the chain named.

Key:
[1] = molecular target: T1, Human B7H4 ECD (SV), splice variant, 10His_FLAG (human); experiment: Octet; summary table, repeats Table 9 (hIgG1-TM)
T1 construct: also called B7-H4-SV

[2] = molecular target: T2, Murine B7-H4 ECD-Flag-His10 (monomeric) (mouse, UniProt Q7TSP5 25-257); experiment: Octet; summary table, repeats Table 9 (hIgG1-TM)
T2 construct: extracellular domain; also called FlagHis10 murine B7-H4
T2 sequence (looked up): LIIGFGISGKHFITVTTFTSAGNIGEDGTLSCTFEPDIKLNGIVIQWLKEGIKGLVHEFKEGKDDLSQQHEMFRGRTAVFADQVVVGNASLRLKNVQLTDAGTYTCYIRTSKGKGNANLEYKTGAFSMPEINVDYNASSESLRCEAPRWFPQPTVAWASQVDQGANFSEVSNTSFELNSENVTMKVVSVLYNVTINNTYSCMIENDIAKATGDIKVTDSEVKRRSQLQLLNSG

huHHLA2 = molecular target: T3, huHHLA2 (human, UniProt Q9UM44 23-344); experiment: ELISA
T3 construct: Sourced antigen; construct not described; also called Human HHLA2
T3 sequence (looked up): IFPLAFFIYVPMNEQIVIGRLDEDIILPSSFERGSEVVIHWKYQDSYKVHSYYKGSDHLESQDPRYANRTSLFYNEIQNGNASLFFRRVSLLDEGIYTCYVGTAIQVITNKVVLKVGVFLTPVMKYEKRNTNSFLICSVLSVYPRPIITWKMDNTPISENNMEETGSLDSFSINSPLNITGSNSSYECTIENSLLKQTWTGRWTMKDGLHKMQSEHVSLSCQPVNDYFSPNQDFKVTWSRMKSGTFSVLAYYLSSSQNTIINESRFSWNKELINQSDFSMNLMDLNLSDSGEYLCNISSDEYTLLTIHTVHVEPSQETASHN

huBTN3A2 = molecular target: T4, huBTN3A2 (human, UniProt P78410 30-248, limits assumed); experiment: ELISA
T4 construct: Sourced antigen; construct not described; also called Human BTN3A2
T4 sequence (P78410 30-248 limits assumed): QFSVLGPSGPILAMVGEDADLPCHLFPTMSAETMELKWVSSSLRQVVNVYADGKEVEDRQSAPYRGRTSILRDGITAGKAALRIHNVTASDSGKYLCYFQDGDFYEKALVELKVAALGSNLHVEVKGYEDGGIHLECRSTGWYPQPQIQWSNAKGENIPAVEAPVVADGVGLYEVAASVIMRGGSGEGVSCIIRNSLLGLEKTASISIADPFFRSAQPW

huBTN2A1 = molecular target: T5, huBTN2A1 (human, UniProt Q7KYR7 29-248, limits assumed); experiment: ELISA
T5 construct: Sourced antigen; construct not described; also called Human BTN2A1
T5 sequence (looked up): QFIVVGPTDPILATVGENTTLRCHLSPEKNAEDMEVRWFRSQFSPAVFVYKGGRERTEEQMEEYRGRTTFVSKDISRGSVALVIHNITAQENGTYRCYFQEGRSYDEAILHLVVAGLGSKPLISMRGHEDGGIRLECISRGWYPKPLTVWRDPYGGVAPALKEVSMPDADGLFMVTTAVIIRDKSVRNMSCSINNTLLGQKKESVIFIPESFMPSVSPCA

huBTNL3 = molecular target: T6, huBTNL3 (human, UniProt Q6UXE8 18-237, limits assumed); experiment: ELISA
T6 construct: Sourced antigen; construct not described; also called Human BTNL3
T6 sequence (looked up): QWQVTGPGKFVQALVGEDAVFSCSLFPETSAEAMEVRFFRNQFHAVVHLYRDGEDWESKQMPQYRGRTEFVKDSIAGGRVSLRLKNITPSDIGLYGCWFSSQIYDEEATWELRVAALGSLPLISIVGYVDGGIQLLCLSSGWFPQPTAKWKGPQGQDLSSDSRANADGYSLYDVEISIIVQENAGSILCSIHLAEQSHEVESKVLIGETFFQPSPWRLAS

huB7-H3 = molecular target: T7, huB7-H3 (human, UniProt Q5ZPR3 29-461, limits assumed); experiment: ELISA
T7 construct: Sourced antigen; construct not described; also called Human B7-H3
T7 sequence (looked up): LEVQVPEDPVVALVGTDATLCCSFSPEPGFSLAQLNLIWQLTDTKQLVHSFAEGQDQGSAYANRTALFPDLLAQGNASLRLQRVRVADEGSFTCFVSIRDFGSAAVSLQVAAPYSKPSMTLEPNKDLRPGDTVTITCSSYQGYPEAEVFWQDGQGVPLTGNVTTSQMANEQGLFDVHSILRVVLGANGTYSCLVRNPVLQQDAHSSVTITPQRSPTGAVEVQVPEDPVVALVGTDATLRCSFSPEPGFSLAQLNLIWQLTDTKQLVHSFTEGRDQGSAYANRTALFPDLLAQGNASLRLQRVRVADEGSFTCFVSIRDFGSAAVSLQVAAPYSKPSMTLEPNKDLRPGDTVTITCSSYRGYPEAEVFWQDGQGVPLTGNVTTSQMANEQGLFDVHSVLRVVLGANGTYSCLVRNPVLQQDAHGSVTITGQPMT

huB7-H2 = molecular target: T8, huB7-H2 (human, UniProt O75144 19-258); experiment: ELISA
T8 construct: Sourced antigen; construct not described; also called Human B7-H2
T8 sequence (looked up): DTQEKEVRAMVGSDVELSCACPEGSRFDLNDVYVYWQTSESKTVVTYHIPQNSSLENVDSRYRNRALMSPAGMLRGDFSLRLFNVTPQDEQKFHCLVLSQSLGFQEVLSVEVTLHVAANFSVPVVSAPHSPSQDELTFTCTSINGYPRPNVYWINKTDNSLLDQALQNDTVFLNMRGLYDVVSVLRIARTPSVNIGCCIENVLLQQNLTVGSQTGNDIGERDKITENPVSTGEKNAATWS

huBTN1A1 = molecular target: T9, huBTN1A1 (human, UniProt Q13410 27-242, limits assumed); experiment: ELISA
T9 construct: Sourced antigen; construct not described; also called Human BTN1A1
T9 sequence (looked up): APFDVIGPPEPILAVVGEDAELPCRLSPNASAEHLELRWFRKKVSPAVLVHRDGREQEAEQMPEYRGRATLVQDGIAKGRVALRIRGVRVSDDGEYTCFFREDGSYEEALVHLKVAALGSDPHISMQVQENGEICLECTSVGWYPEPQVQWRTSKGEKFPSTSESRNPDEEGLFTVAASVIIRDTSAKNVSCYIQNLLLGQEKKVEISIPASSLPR

huB7-H1 = molecular target: T10, huB7-H1 (human, UniProt Q9NZQ7 19-238); experiment: ELISA
T10 construct: Sourced antigen; construct not described; also called Human B7-H1
T10 sequence (Q9NZQ7 19-238 limits assumed): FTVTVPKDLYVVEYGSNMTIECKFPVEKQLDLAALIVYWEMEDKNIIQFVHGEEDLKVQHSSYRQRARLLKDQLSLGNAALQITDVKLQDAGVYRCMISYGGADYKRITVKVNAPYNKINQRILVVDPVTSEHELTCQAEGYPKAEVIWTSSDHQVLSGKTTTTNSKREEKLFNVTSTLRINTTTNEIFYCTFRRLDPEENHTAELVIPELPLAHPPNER

[3] = molecular target: T11, Human B7-H4 ECD-Flag-His10 (monomeric) (human, UniProt Q7Z7D3 25-259); experiment: Octet; summary table, rounded from Table 9 (hIgG1-TM)
T11 construct: Minimally biotinylated for KinExA; also called hB7H4-ECD-Flag-His10; B7-H4-FLAG
T11 sequence: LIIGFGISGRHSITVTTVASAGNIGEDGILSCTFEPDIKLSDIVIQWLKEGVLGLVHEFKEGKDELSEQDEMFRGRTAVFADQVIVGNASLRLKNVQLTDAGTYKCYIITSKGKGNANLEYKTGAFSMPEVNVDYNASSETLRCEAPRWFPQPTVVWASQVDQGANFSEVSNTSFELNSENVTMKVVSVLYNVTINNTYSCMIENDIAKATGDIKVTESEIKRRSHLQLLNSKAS

[4] = molecular target: T11, Human B7-H4 ECD-Flag-His10 (monomeric); experiment: Octet BLI, hIgG1-TM on Protein G (n = 4-7)
[5] = molecular target: T1, Human B7H4 ECD (SV), splice variant, …; experiment: Octet BLI, hIgG1-TM on Protein G (n = 4-7)
[6] = molecular target: T2, Murine B7-H4 ECD-Flag-His10 (monomeric); experiment: Octet BLI, hIgG1-TM on Protein G (n = 4-7)
human B7-H4 on cells = molecular target: T12, human B7-H4 on cells (human, UniProt Q7Z7D3 25-282); experiment: cell-based or functional assay
T12 sequence: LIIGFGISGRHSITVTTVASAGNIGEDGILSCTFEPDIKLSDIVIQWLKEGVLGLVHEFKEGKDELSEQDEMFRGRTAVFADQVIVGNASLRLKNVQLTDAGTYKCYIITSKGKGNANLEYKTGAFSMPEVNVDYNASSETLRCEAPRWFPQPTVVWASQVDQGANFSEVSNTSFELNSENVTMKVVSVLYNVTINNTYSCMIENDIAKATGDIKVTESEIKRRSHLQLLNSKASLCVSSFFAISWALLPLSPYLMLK

[7] = molecular target: T13, cynomolgus monkey B7-H4 on cells (cynomolgus monkey, UniProt A0A2K5U6P5 25-282); experiment: cell-based or functional assay
T13 sequence: T12 sequence with L53I, F242L, S252A

[8] = molecular target: T14, Human B7H4 (ECD) Fc TM 6H (human, UniProt Q7Z7D3); experiment: ELISA, absorbance 450 nm, Human B7H4 (ECD) Fc TM 6H; x axis printed as antigen concentration (nM)
T14 construct: ECD, native leader
T14 sequence (Q7Z7D3 whole entry, looked up): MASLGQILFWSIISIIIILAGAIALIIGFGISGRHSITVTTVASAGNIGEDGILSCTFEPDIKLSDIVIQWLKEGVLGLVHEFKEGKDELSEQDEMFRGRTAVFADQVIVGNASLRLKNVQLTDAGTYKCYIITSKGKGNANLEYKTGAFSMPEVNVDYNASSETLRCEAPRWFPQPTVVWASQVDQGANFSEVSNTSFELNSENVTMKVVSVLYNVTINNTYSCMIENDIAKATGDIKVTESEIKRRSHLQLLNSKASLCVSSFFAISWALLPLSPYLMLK

B1: ZY0EO5-E07 human IgG1-TM (antibody, V domains shown)
VH: QVQLQESGPGLVKPSQTLSLTCTVSGGSISSGGYYWSWIRQHPGKGLEWIGNIYYSGSTYYNPSLKSRVTISVDTSKNQFSLKLSSVTAADTAVYYCAREKALASVIPSGYENYYVVDVWGQGTTVTVSS
VL: DIQLTQSPSFLSASVGGRVTITCWASQGIAGYLAWYQQKPGKAPKLLIYAASTLQSGVPSRFSGSGSGTEFTLTISSLQPEDFATYYCQHLNSYPLTFGGGTKVEIK
notes: also called ZY0E05-E07; E05-E07
[1]
  Kd: 264 nM
[2]
  Kd: 30 nM
huHHLA2
  binding result: no binding
huBTN3A2
  binding result: no binding
huBTN2A1
  binding result: no binding
huBTNL3
  binding result: no binding
huB7-H3
  binding result: no binding
huB7-H2
  binding result: no binding
huBTN1A1
  binding result: no binding
huB7-H1
  binding result: no binding
[3]
  Kd: 20 nM
[4]
  Kd: 19.8 nM
  koff: 0.000338 s⁻¹
  kon: 17100 M⁻¹ s⁻¹
[5]
  Kd: 264 nM
  koff: 0.000499 s⁻¹
  kon: 1890 M⁻¹ s⁻¹
[6]
  Kd: 30 nM
  koff: 0.000361 s⁻¹
  kon: 12100 M⁻¹ s⁻¹
Human B7-H4 on cells
  ZAP % Viability, OVCAR4: 58%
  ZAP % Viability, SKBR3: 79%

B2: E02-GL-SG3249 (antibody, human IgG1, kappa)
heavy: QVQLQQWGAGLLKPSETLSLACTVYGGSFSGYYWNWIRQPPGKGLEWIGEINHSGSTSYNPSLKSRVTISVDTSKNQFSLKLSSVTAADTAVYYCARVLYNWNVDSWGQGTLVTVSSASTKGPSVFPLAPSSKSTSGGTAALGCLVKDYFPEPVTVSWNSGALTSGVHTFPAVLQSSGLYSLSSVVTVPSSSLGTQTYICNVNHKPSNTKVDKRVEPKSCDKTHTCPPCPAPELLGGPSCVFLFPPKPKDTLMISRTPEVTCVVVDVSHEDPEVKFNWYVDGVEVHNAKTKPREEQYNSTYRVVSVLTVLHQDWLNGKEYKCKVSNKALPAPIEKTISKAKGQPREPQVYTLPPSREEMTKNQVSLTCLVKGFYPSDIAVEWESNGQPENNYKTTPPVLDSDGSFFLYSKLTVDKSRWQQGNVFSCSVMHEALHNHYTQKSLSLSPGK
light: DIQMTQSPSSLSASVGDRVTITCRASQDIRNDVGWYQQKPGKAPKRLIYAASRLQSGVPSRFSGSGSGTEFTLTISSLQPEDFATYYCLQHNSYPRTFGQGTKVEIKRTVAAPSVFIFPPSDEQLKSGTASVVCLLNNFYPREAKVQWKVDNALQSGNSQESVTEQDSKDSTYSLSSTLTLSKADYEKHKVYACEVTHQGLSSPVTKSFNRGEC
modifications: pyrrolobenzodiazepine SG3249 conjugated at the inserted cysteine of the Maia backbone
[7]
  IC50, cytotoxicity on cynomolgus B7-H4 transfected cells: 0.672 ng/mL

B3: E02-maia (ZY0EQD_E02, wildtype, Maia format human IgG1) (antibody, V domains shown)
VH: QVQLQQWGAGLLKPSETLSLTCAVYGGSFSGYYWNWIRQPPGKGLEWIGEINHSGSTSYNPSLKSRVTISVDTSKNQFSLKLSSVTAADTAVYYCARVLYNWNVDSWGQGTLVTVSS
VL: DIQMTQSPSSLSASVGDRVTITCRASQDIRNDVGWYQQKPGKAPKRLIYAASRLQSGVPSRFSGSGSGTEFTLTISSLQPEDFATYYCLQHNSYPRTFGQGTKVEIKR
notes: built here from VH 33 and the Maia constant region 41
[8]
  EC50 (read off the curve): ~10 nM
